Assay results as given in PMC4914107 (Nucleic Acids Research, 2016).

Biological target: T1, RAD51 (purified) (UniProt Q06609 1-339)
T1 sequence (looked up): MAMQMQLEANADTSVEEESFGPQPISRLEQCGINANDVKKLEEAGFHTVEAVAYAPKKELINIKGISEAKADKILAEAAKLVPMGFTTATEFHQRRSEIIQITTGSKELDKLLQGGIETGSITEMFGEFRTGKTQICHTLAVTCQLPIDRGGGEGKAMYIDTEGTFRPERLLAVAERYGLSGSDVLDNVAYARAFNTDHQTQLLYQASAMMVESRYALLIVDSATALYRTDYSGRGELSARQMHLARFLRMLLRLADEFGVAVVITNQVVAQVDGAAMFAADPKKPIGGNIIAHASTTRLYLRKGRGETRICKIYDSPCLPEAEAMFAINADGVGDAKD
Assay: pull-down

- binding result: binds
B1: 2XMBP-BRC1–4-DBD (domain or fragment, human)
chain: WAGLLGPISNHSFGGSFRTASNKEIKLSEHNIKKSKMFFKDIEEQYPTSLACVEIVNTLALDNQKKLSKPQSINTVSAHLQSSVVVSDCKNSHITPQMLFSKQDFNSNHNLTPSQKAEITELSTILEESGSQFEFTQFRKPSYILQKSTFEVPENQMTILKTTSEECRDADLHVIMNAPSIGQVDSSKQFEGTVEIKRKFAGLLKNDCNKSASGYLTDENEVGFRGFYSAHGTKLNVSTEALQKAVKLFSDIENISEETSAEVHPISLSSSKCHDSVVSMFKIENHNDKTVSEKNNKCQLILQNNIEMTTGTFVEEITENYKRNTENEDNKYTAASRNSHNLEFDGSDSSKNDTVCIHKDETDLLFTDQHNICLKLSGQFMKEGNTQIKEDLSDLTFLEVAKAQEACHGNTSNKEQLTATKTEQNIKDFETSDTFFQTASGKNISVAKESFNKIVNFFDQKPEELHNFSLNSELHSDIRKNKMDILSYEETDIVKHKILKESVPVGTGNQLVTFQGQPERDEKIKEPTLLGFHTASGKKVKIAKESLDKVKNLFDEKEQGTSEITSFSHQWAKTLKYREACKDLELACETIEITAAPGGGSPYLSQFQQDKQQLVLGTKVSLVENIHVLGKEQASPKNVKMEIGKTETFSDVPVKTNIEVCSTYSKDSENYFETEAVEIAKAFMEDDELTDSKLPSHATHSLFTCPENEEMVLSNSRIGKRRGEPLILVGEPSIKRNLLNEFDRIIENQEKSLKASKSTPDGTIKDRRLFMHHVSLEPITCVPFRTTKERQEIQNPNFTAPGQEFLSKSHLYEHLTLEKSSSNLAVSGHPFYQVSATRNEKMRHLITTGRPTKVFVPPFKTKSHFHRVEQCVRNINLEENRQKQNIDGHGSDDSKNKINDNEIHQFNKNNSNQAVAVTFTKCEEEPLDLITSLQNARDIQDMRIKKKQRQRVFPQPGSLYLAKTSTLPRISLKAAVGGQVPSACSHKQLYTYGVSKHCIKINSKNAESFQFHTEDYFGKESLWTGKGIQLADGGWLIPSNDGKAGKEEFYRALCDTPGVDPKLISRIWVYNHYRWIIWKLAAMECAFPKEFANRCLSPERVLLQLKYRYDTEIDRSRRSAIKKIMERDDTAAKTLVLCVSDIISLSANISETSSNKTSSADTQKVAIIELTDGWYAVKAQLDPPLLAVLKNGRLTVGQKIILHGAELVGSPDACTPLEAPESLMLKISANSTRPARWYTKLGFFPDPRPFPLPLSSLFSDGGNVGCVDVIIQRAYPIQWMEKTSSGLYIFRNEREEEKEAAKYVEAQQKRLEALFTKIQEEFEEHEENTTKPYLPSRALTRQQVRALQDGAELYEAVKNAADPAYLEGYFSEEQLRALNNHRQMLNDKKQAQIQLEIRKAMESAEQKEQGLSRDVTTVWKLRIVSYSKKEKDSVILSIWRPSSDLYSLLTEGKRYRIYHLATSKSKSKSERANIQLAATKKTQYQQLPVSDEILFQIYQPREPLHFSKFLDPDFQPSCSEVDLIGFVVSVVKKTGLAPFVYLSDECYNLLAIKFWIDLNEDIIKPHMLIAASNLQWRPESKSGLLTLFAGDFSVFSASPKEGHFQETFNKMKNTVENIDILCNEAENKLMHILHANDPKWSTPTKDCTSGPYTAQIIPGTGNKLLMSSPNCEIYYQSPLSLCMAKRKSVSTPVSAQMTSKSCKGEKEIDDQKNCKKRRALDFLSRLPLPPPVSPICTFVSPAAQKAFQPPRSCGTKYETPIKKKELNSPQMTPFKKFNEISLLESNSIADEELALINTQALLSGSTGEKQFISVSESTRTAPTSSEDYLRLKRRCTTSLIKEQESSQASTEECEKNKQDTITTKKYI
